This passage reports stoichiometry N results from PMC11580989.

For this experiment, the target named is Rad52^ΔN* (Saccharomyces cerevisiae). Nature of the experiment: mass photometry.

As a reminder, the stoichiometry N is a count of units in the complex or per binding partner. As to “Saccharomyces cerevisiae Rad51 (from UniProt P25454 1-400) (natural protein)”, the stoichiometry N worked out at 1.
